Reference: patent US20110207628A1 (UNIVERSITY OF MIAMI, published 2011)

Target: T1, GST-tubby-F (GST fused to full-length mouse tubby) (Schistosoma japonicum; mouse, UniProt P50586 1-505)
T1 construct: mature; Expressed in E. coli BL21(DE3) from pGEX-2T; not shown: glutathione S-transferase of pGEX-2T (Schistosoma japonicum)
T1 sequence (looked up): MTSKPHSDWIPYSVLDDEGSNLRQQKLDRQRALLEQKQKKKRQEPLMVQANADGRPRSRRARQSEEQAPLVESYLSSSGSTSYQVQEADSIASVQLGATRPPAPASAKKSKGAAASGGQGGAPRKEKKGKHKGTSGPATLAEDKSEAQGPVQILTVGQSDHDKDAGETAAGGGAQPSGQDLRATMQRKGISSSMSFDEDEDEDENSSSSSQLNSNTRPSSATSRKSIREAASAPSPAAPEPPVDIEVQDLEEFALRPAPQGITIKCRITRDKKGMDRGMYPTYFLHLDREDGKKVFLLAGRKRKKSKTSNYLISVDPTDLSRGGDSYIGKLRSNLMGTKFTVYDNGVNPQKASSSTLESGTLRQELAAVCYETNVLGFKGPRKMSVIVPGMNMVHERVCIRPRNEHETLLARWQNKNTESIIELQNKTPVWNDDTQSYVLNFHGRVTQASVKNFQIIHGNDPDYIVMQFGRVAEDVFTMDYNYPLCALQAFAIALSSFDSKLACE
Experiment: GST pull-down: GST-tubby with lysate of cells expressing the FLAG-tagged protein, glutathione resin, Western blot with anti-FLAG mAb

B1: FLAG-tagged Tulp3 (full-length mouse Tulp3 with N-terminal FLAG tag) (other)
chain: DYKDDDDKMEAARCAPGPRGDSAFDDETLRLRQLKLDNQRALLEKKQRKKRLEPLMVQPNPEARLRRLKPRGSEEHTPLVDPQMPRSDVILHGIDGPAAFLKPEAQDLESKPQVLSVGSPAPEEGTEGSADGESPEETAPKPDLQEILQKHGILSSVNYDEEPDKEEDEGGNLSSPSARSEESAAASQKAASETGASGVTAQQGDAQLGEVENLEDFAYSPAPRGVTVKCKVTRDKKGMDRGLFPTYYMHLEREENRKIFLLAGRKRKKSKTSNYLVSTDPTDLSREGESYIGKLRSNLMGTKFTVYDHGVNPVKAQGLVEKAHTRQELAAICYETNVLGFKGPRKMSVIIPGMNMNHERIPFRPRNEHESLLSKWQNKSMENLIELHNKAPVWNDDTQSYVLNFHGRVTQASVKNFQIVHGNDPDYIVMQFGRVADDVFTLDYNYPLCALQAFAIGLSSFDSKLACE
notes: mature; Expressed from pcDNA3 in Neuro-2a cells; used as cell lysate or on membrane vesicles
  binding result: no binding
